Assays:
HUVEC = experiment: Cytotoxicity assay on adherent and non-adherent HUVEC; type: cell-based, human; details: adherent and non-adherent cells, concentrations lower than 100 pg/ml, 24 h, MTT
Protocol: The supernatant was removed using a Pasteur pipet connected to a vacuum pump, and 200 µL of dimethyl sulfoxide was then added to each well to dissolve the formazan crystals. The absorbance at 570 nm was then read using a microtiter plate reader.
The cytotoxicity assay with cell in suspension was carried out following the same protocol except that the overnight incubation of the microtiter plate after cell plating was omitted.

CD13 expressed in HUVEC = experiment: Inhibition of cell-associated CD13 enzymatic activity, HUVEC; type: cell-based, human; details: 3 × 10^5 cells/well, L-alanine p-nitroanilide, 30 min, 37 °C, absorbance 405 nm
Protocol: Fig. 5 Quantification of CD13 expressed by HL-60 and HUVEC by western blotting and FACS analyses, and determination of their enzymatic activity. A Western blotting (WB) analysis of CD13 expression in HL-60 cells and HUVEC. For both cell lines, 2 µg of cell lysates were loaded in each well (n = 4–5 replicates, as indicated). After blotting, the membrane was cut and analyzed for CD13 and actin expression as described in Material and methods. The results of one representative experiment, out of three independent experiments performed, are shown (bars, ratio of CD13/actin band intensity, mean ± SEM). Recombinant human CD13 (rCD13) (20 ng) was loaded as positive control. MW, molecular weight markers. B FACS analysis of CD13 expression in HUVEC and HL-60 cells. The cells were incubated with mAb WM15 (10 μg/mL) and stained with a FITC-labeled goat anti-mouse IgG (H + L) secondary antibody. Data were expressed as fluorescence intensity and normalized to the number of cells. The cumulative results of three independent experiments are shown (each performed in duplicate; mean ± SEM). C Enzyme activity assay of CD13 expressed in HUVEC and HL-60 cells. […] Absorbance at 405 nm was measured using a plate reader. The enzyme units in each sample were calculated using rCD13 as a standard and were normalized to the number of cells. […] The absorbance was measured at 405 nm using a plate reader. […]

VGCARRYCS-TNF [G4-TNF, recombinant murine TNF fused to the C-terminus of G4]
Cytotoxic effects on HUVEC (in words) (HUVEC): No or minimal cytotoxic effects
Inhibition of CD13 enzymatic activity associated with HUVEC (in words) (CD13 expressed in HUVEC): did not inhibit

Source: publication PMC10827914 (Cellular and Molecular Life Sciences: CMLS, 2024)
